One may read the IC50 as the concentration at which inhibition is half-maximal. A word on the EC50: it is the concentration at which the effect is half-maximal. A low value points to a more potent agent. As a reminder, the Kd is the equilibrium constant for the complex coming apart. In general, koff refers to a measure of how fast the partners let go of each other. Read a low koff as slow dissociation. For orientation: kon means the second-order rate constant of association. The low end stands for slow association, the high end for fast association.

Positions count from the first letter of the chain named.

B1: 2V41-9GS (VHH)
chain: QLQLVESGGGSVQPGGSLRLSCEVSGRTFSSYTMGWFRQAPGKEREFVVAISKGGYKYDSVSLEARFTISKDNTKNTVYLQMNSLKPEDTAVYYCAGTRAYGSSRLRLAKTYEYWGQGTQVTVSSGGGGSGGGSQLQLVESGGGSVQPGGSLRLSCEVSGRTFSSYTMGWFRQAPGKEREFVVAISKGGYKYDSVSLEARFTISKDNTKNTVYLQMNSLKPEDTAVYYCAGTRAYGSSRLRLAKTYEYWGQGTQVTVSS
notes: Tandem bivalent nanobody
B2: 2V29-9GS (VHH)
chain: B1 chain with K110N, K244N
notes: Tandem bivalent nanobody
B3: 2V1-9GS (VHH)
chain: B1 chain with G97A, K110D, G231A, K244D
notes: Tandem bivalent nanobody
B4: 2V33-9GS (VHH)
chain: B1 chain with G97A, G231A
notes: Tandem bivalent nanobody
B5: 2V36-9GS (VHH)
chain: B1 chain with S30A, K110D, S164A, K244D
notes: Tandem bivalent nanobody
B6: 2V30-9GS (VHH)
chain: B1 chain with E44G, S60A, G97A, E178G, S194A, G231A
notes: Tandem bivalent nanobody
B7: 2V15-9GS (VHH)
chain: B1 chain with S30A, K110E, S164A, K244E
notes: Tandem bivalent nanobody
B8: V15 (VHH)
VHH: QLQLVESGGGSVQPGGSLRLSCEVSGRTFASYTMGWFRQAPGKEREFVVAISKGGYKYDSVSLEARFTISKDNTKNTVYLQMNSLKPEDTAVYYCAGTRAYGSSRLRLAETYEYWGQGTQVTVSS
notes: Monovalent nanobody; tag not described here, the ELISA detects a His tag
B9: V43 (VHH)
VHH: B8 VHH with A30T, E110N
notes: as for B8

For the first test, the target named is T1, human VEGFA165 (human, UniProt P15692-4 27-191).
T1 construct: Bought protein from two suppliers, treated as one molecule; the supplier is named under assay; also called antigen VEGFA
T1 sequence (P15692 other isoform, or with tags, fused parts or gaps limits assumed): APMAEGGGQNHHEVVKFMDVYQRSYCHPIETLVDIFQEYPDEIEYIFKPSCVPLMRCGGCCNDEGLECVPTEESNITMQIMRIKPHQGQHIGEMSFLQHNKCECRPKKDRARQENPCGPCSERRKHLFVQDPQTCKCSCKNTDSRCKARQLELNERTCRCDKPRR
Kind of test: competitive ELISA, coated VEGFA, competitor VEGFR2-ECD-Fc 1 nM. Here is the method:
(§1) Antigen VEGFA was diluted with ELISA coating buffer (final concentration of […]) and added to a 96-well microplate at 100 μL/well for coating at 4° C. overnight. […] The plate was incubated at 37° C. for 1 h and washed 3 times with PBST. Subsequently, a dilution of HRP-labeled goat anti-human IgG antibody (HRP-conjugated Goat Anti-Human IgG, purchased from Proteintech, Cat. No.: A21050) was added, and the plate was further incubated at room temperature for 45 min. After the plate was washed, 100 μL of TMB (purchased from Tiangen Biotech, Cat. No.: PA107-01) was added to each well for color development at 37° C. for 15 min, followed by the addition of 50 μL of stopping solution. The absorbance at 450 nm (OD450) was measured using a microplate reader.
For B1, the IC50 came to 1.97 nM.

The molecule B2 showed an IC50 of 1.77 nM.

Molecule B3 displayed an IC50 of 2.97 nM.

As for B4, the IC50 was 3.48 nM.

Regarding B5, the half-maximal inhibitory concentration (IC50) came out at 3 nM.

For the molecule B6, the IC50 amounted to 1.41 nM. This IC50 lies about 2.1-fold lower than the previous one.

B7: the IC50 came to 2.07 nM.

A further test has as its target T1, human VEGFA165. Nature of the test: ELISA, coated human VEGFA165, anti-His detection. Here is the method: (§2) Antigen human VEGFA165 (label-free, purchased from Sino Biological, Cat. No.: HPLC-10008-HNAH, hereinafter referred to as VEGFA) was diluted with ELISA coating buffer to a final concentration of 0.3 μg/mL and added to a microplate at 100 μL/well for coating at 4° C. overnight. […] The solution used for antibody dilution was PBS containing 0.1% Tween-20 (pH 7.4), i.e., PBST. After being incubated at 37° C. for 1 h, the microplate was washed 3 times with PBST, and a dilution of His-Tag murine monoclonal antibody (purchased from Proteintech, Cat. No.: 66005-1-Ig) was added. The plate was further incubated at 37° C. for 1 h and washed again. Subsequently, a dilution of HRP-labeled goat anti-mouse IgG antibody (HRP-conjugated Affinipure Goat Anti-Mouse IgG (H+L), purchased from Proteintech, Cat. No.: SA00001-1) was added, and the plate was incubated at room temperature for 45 min. After the plate was washed, 100 μL of TMB (purchased from Tiangen Biotech, Cat. No.: PA107-01) was added to each well for color development at 37° C. for 15 min, followed by the addition of 50 μL of stopping solution. The absorbance at 450 nm (OD450) was measured using a microplate reader.
On the technique in general: An ELISA detects its analyte on a solid surface through an enzyme-linked reagent.
On to B1, for which the EC50 turned out to be 0.27 nM.

B2 gave a concentration giving a half-maximal response (EC50) of 0.31 nM.

Regarding B3, the response was half-maximal at 0.09 nM (EC50).

Regarding B4, the half-maximal effective concentration (EC50) is 0.32 nM.

Regarding B5, the concentration giving a half-maximal response (EC50) came to 0.3 nM.

The molecule B6 showed an EC50 of 0.25 nM.

Molecule B7 had an EC50 of 0.24 nM.

A further test concerns the target T1, human VEGFA165. Kind of test: ELISA, coated human VEGFA165, anti-His detection. The source holds these as a separate data set. As to the method:
as §2
In turn, B7 came in with a half-maximal effective concentration (EC50) of 0.25 nM.

The target of a further test is T1, human VEGFA165. Nature of the test: competitive ELISA, coated VEGFA, competitor VEGFR2-ECD-Fc 1 nM. This is another data set of the same source.
For the molecule B7, the IC50 was found to be 3.13 nM and the “Maximum inhibition rate (%)” value came to 88.4%.

Another test addresses T1, human VEGFA165. The test is described as above. The source holds these as a separate data set. Here is the method:
as §1
Molecule B8 showed a half-maximal inhibitory concentration (IC50) of 6.65 nM.

Take B7: the IC50 was 3.61 nM. This IC50 lies about 1.8-fold lower than the previous one.

Another test addresses T1, human VEGFA165. Nature of the test: ELISA, coated human VEGFA165, anti-His detection. The source holds these as a separate data set. As to the method: as §2
Molecule B7 gave an EC50 of 0.22 nM.

For a further test, the target named is T1, human VEGFA165. Kind of test: ELISA, coated human VEGFA165, anti-His detection. The source holds these as a separate data set. As to the method:
as §2
The experimental procedure was the same as that described in “2.
As for B8, a half-maximal effect (EC50) was put at 1 nM.

In turn, B9 displayed an EC50 of 0.31 nM.

In turn, B3 showed an EC50 of 0.09 nM. Compared with the last molecule, the EC50 is about 3.4-fold lower.

B7 returned a concentration for a half-maximal effect (EC50) of 0.24 nM.

The target of a further test is T1, human VEGFA165. Kind of test: SPR Biacore 8K, VEGFA165 on CM5, nanobody analyte, 1:1 fit. Here is the method: Using the Biacore 8K instrument (Cytiva), the antigen VEGFA165 (label-free, purchased from Sino Biological, Cat. No.: HPLC-10008-HNAH) as the ligand was coupled onto a CM5 chip through amino-coupling reagents (EDC and NHS), with the coupling level being about 400 RU. The mobile phase buffer was HBS-EP (0.01 M HEPES pH 7.4, 0.15 M NaCl, 3 mM EDTA, 0.005% v/v Tween 20) during the experiment. […] In the kinetic analysis, the binding time between the antigen and the antibody was 240 s, the dissociation time was 1500 s, and the flow rate was 30 μL/min. In a multi-cycle mode, the chip was regenerated with 100 mM hydrochloric acid.
(In general: Surface plasmon resonance follows binding to a sensor surface in real time, without labels.)
B9: binding was characterised by a dissociation constant (Kd) of 0.116 nM, the koff was found to be 8.63e-05 s⁻¹ and the kon was 743000 M⁻¹ s⁻¹.

For the molecule B3, the Kd is 0.0224 nM, the koff was 5.05e-05 s⁻¹ and the kon stood at 2.25e+06 M⁻¹ s⁻¹.

Molecule B6 yielded a Kd of 0.0222 nM, a koff of 9.29e-05 s⁻¹ and a kon of 4.18e+06 M⁻¹ s⁻¹.

Source of the values: US20260234232A1 (QUAERITE BIOPHARM RESEARCH BEIJING, published 2026).
